# Experimental data from the nanobody polyreactivity screen of Harvey et al. (2022).
# Experiment: yeast display, Sf9 membrane polyspecificity reagent, FACS + sequencing; frameworks hold sequencing errors
# Method in brief: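 Polyreactivity labels are assigned by the sorting gate from which each nanobody was recovered. The gates were low and high (top ~1%), set on anti-HA fluorescence for expression and streptavidin fluorescence for reagent binding. Before sorting, galactose-induced (36–48 hours) yeast display cells were stained for 1 hour at 4 °C with 10% biotinylated, detergent-solubilized Sf9 membrane reagent.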
row,Sequence,polyreactivity (PSR sort gate)
1,QVQLVESGGGLVQAGGSLRLSCAASGRIFRYYAMGWYRQAPGKERELVAAIRYRSGGTYYADSVKGRFTISRDNAKNTVYLQMNCLKPEDTAVYYCNADKRLRGHGYDYWGQGTQVTVSS,high polyreactivity
2,QVQLVESGGGLVQAGGSLRLSCAASGRTFRYNPMVWYRQAPGKERELVAAITWSGGSTYYADSVKGRFKISRDNAKNTVYLQMNSLKPEDTAVYYCNRRYYAYDWGQGTQVTVSS,high polyreactivity
3,QVQLVESGGGLVQAGGSLRVCCAASGRIFGNYAMGWYRQAPGKDRELVAAISGGGSTYYADSVKGRFTISRDNAKNTVYVQMNSLKPEDTAVYYCAAKPTYRGYGYGSWGQGTQVTVSS,low polyreactivity
4,QVQLVESGGGLVKAGGSLRLSCAASGSTFVGYAMGWYRQAPGKERELVADITWSGTNTYYADSVKGRFTISRDNAKNTVYLQMNSLKPEDTAVYYCAADIARSVRFYYWGQGTQVTVSS,low polyreactivity
5,QVQLVETGGGLVQAGGSLRLSCAASGFIFEFYAMGWYRQAPGKERELVAAITGRGGSTYYADSVKGRFTISRDNAKNTVYLQMNSLKPEDTAVYYCAASIGGQVPGFGWYDYWGQGTQVTVSS,low polyreactivity
6,QVQLVESGGGLVQAGGSLRVSCAASGNSFTGYVMGWYRQAPGKERELVAAIRSGGSTYYADSVKGRFRISRDNAKNTVYLQMTSLKPEDTAVYYCNARYRYRLRGYDYWGQGTQVTVSS,high polyreactivity
7,QVQLVESGGGLVHAGGSLRLSCAASGFTFSYYAMVWYREAPGKEREFVAAISRSGGSTYYADSVKGRFTISRDNAKNTVYLQMNSLYPVDTAVYYCATELSYRHGYWGQGTQVSVSS,high polyreactivity
8,QVQLVESGGGLVQAGGSLRLSCAASGRIFVKNAMGWNRQAPGKESELVAAISASGGSTYYADSVKGRFTISRDNAKNTVDLQMNSLKPEDTAVYYCAARRRAFGSTYNYWGQGTQVTVSS,high polyreactivity
9,QVQLVESGGGLVQAGGSLRLSCAASGSIFYYYAMGWSRQAPGKERELVAAITWRGGRTYYADSVKGRFTISRDNAKNTVYLQMNSLKPEDTAVYYCAADSRYYQYIYIHGYDYWGQGTQVTVSS,high polyreactivity
10,QVQLVESGGGLVQAGGSLRLSCAASGFIFDYYAMGWYRQAPGKERELVAAITRDGGGTYYADSVKGRFTISRDNAKNTVYLQMNSLKPEDTAVYYCAARRAVRLYYWGQGTQVTVSS,high polyreactivity
11,QVQLVESGGGLVQAGGSLRLSCAASGFTLVLNAMGWYRQAPGKERELVAAIRRSAGSTYYADSVKGRFTISRDNAKNTVYLQLNSLKPEDTAVYYCAACFLWAKYAYGHWGTFNYWGQGTQVTVSS,low polyreactivity
12,QVQLVESGGGLVQAGGSLRLSCAASGITFAEYAMGWYRPAPGKERELVAAINGGGGSTYYADSVKGRFTISRDYAKNTVYFQMNSLKPEDTAVYYCAADGYPGDYDYWGQGTQVTVSS,high polyreactivity
13,QVQLVESGGGLVQAGGSLRLSCAASGFIFSRNAMGWYRQAPGKERELVDRISRSGGRTYYADSVKGRFTISRDNAKNTVYLQMNSLKPEDTAVYYCATDHVRQSPYDYWGQGTQVTVSS,high polyreactivity
14,QVHLVESGGGLVQAGGRLRLSCAASGIIFRLYGMGWYRQAPGKEREFVATITWRGGRTNYADSVKGRFTIARDNAKNTVYLQMNSLKPEDTAVYYCAKVVRYARSNEYDSWGQGTQVTVSS,low polyreactivity
15,QVQLVESGGGLVQAGGSLRLTCAASGFTFSEYAMGWYRQAPGKEMEVVAAISWRGGSTYYADSVKGRFTISRDNAKNTVYLQMNSLKPEDTAVYYCAADSSGVYASWYKMDYWGKGTQVTVSS,high polyreactivity
16,QVQLVESGGGLVQAGGSLRLSCASSGRTLGGYAMGWYRQAPGKERELVAAITRRGGSTYYADSVKGRFTISRDNAKNTVYLLMNSLKTEDTAVYYCAARWYARSLTRFNYWGEGTQVTVSS,high polyreactivity
17,QVQLVESGGGLVQAGGSLRLSCAASGSTFRRNAMGWYRQAPGKERELVAAITRRGTSTYYADSVKGRFTISRDNAKNTVYLQMNSLKPEDTAVYYCNAPRPYQDGKFGYWGQGTQVTVSS,high polyreactivity
